Test results published in patent publication US20140271457A1 (AbbVie / Abbott, published 2014).
Positions count from the first letter of the chain named.

B1: DVD3238 (bispecific antibody, IgG1)
VH: EVQLVESGGGLVQPGGSLRLSCAASGFSFSKYWLGWVRQAPGKGLEWVSDIYPGYDYTHYNEKFKDRFTISADTSKNTAYLQMNSLRAEDTAVYYCARSDGSSTYWGQGTLVTVSSGGGGSGGGGSEVQLVQSGAEVKKPGASVKVSCKASGYTFNNYGIIWVRQAPGQGLEWMGWINTYTGKPTYAQKFQGRVTMTTDTSTSTAYMELSSLRSEDTAVYYCARKLFNTVAVTDNAMDYWGQGTTVTVSS
VL: DIQMTQSPSSLSASVGDRVTITCTSSQNIVHSNGNTYLEWYQQKPGKAPKLLIYKVSNRFSGVPSRFSGSGSGTDFTLTISSLQPEDFATYYCFQVSHVPYTFGQGTKVEIKRGGSGGGGSGDIQMTQSPSSLSASVGDRVTITCRASQDIENYLNWYQQKPGKAPKLLIYYTSRLQSGVPSRFSGSGSGTDFTLTISSLQPEDFATYFCQQGNTQPPTFGQGTKLEIKR
B2: DVD3241 (bispecific antibody, IgG1)
VH: EVQLVESGGGLVQPGGSLRLSCAASGFSFSKYWLGWVRQAPGKGLEWVSDIYPGYDYTHYNEKFKDRFTISADTSKNTAYLQMNSLRAEDTAVYYCARSDGSSTYWGQGTLVTVSSASTKGPEVQLVQSGAEVKKPGASVKVSCKASGYTFNNYGIIWVRQAPGQGLEWMGWINTYTGKPTYAQKFQGRVTMTTDTSTSTAYMELSSLRSEDTAVYYCARKLFNTVAVTDNAMDYWGQGTTVTVSS
VL: DIQMTQSPSSLSASVGDRVTITCTSSQNIVHSNGNTYLEWYQQKPGKAPKLLIYKVSNRFSGVPSRFSGSGSGTDFTLTISSLQPEDFATYYCFQVSHVPYTFGQGTKVEIKRTVAAPSVFIFPPDIQMTQSPSSLSASVGDRVTITCRASQDIENYLNWYQQKPGKAPKLLIYYTSRLQSGVPSRFSGSGSGTDFTLTISSLQPEDFATYFCQQGNTQPPTFGQGTKLEIKR
B3: DVD3232 (bispecific antibody, IgG1)
VH: EVQLVESGGGLVQPGGSLRLSCAASGFSFSKYWLGWVRQAPGKGLEWVSDIYPGYDYTHYNEKFKDRFTISADTSKNTAYLQMNSLRAEDTAVYYCARSDGSSTYWGQGTLVTVSSASTKGPSVFPLAPEVQLVQSGAEVKKPGASVKVSCKASGYTFANYGIIWVRQAPGQGLEWMGWINTYTGKPTYAQKFQGRVTMTTDTSTSTAYMELSSLRSEDTAVYYCARKLFTTMDVTDNAMDYWGQGTTVTVSS
VL: DIQMTQSPSSLSASVGDRVTITCTSSQNIVHSNGNTYLEWYQQKPGKAPKLLIYKVSNRFSGVPSRFSGSGSGTDFTLTISSLQPEDFATYYCFQVSHVPYTFGQGTKVEIKRTVAAPDIQMTQSPSSLSASVGDRVTITCRASQDISQYLNWYQQKPGKAPKLLIYYTSRLQSGVPSRFSGSGSGTDFTLTISSLQPEDFATYFCQQGNTWPPTFGQGTKLEIKR
B4: DVD3242 (bispecific antibody, IgG1)
VH: B3 VH with A159N, T231N, M233V, D234A
VL: B3 VL with S148E, Q149N, W212Q
B5: DVD3239 (bispecific antibody, IgG1)
VH: B2 VH
VL: B3 VL with S148E, Q149N, W212Q
B6: DVD3234 (bispecific antibody, IgG1)
VH: EVQLVQSGAEVKKPGASVKVSCKASGYTFNNYGIIWVRQAPGQGLEWMGWINTYTGKPTYAQKFQGRVTMTTDTSTSTAYMELSSLRSEDTAVYYCARKLFNTVAVTDNAMDYWGQGTTVTVSSASTKGPEVQLVESGGGLVQPGGSLRLSCAASGFSFSKYWLGWVRQAPGKGLEWVSDIYPGYDYTHYNEKFKDRFTISADTSKNTAYLQMNSLRAEDTAVYYCARSDGSSTYWGQGTLVTVSS
VL: DIQMTQSPSSLSASVGDRVTITCRASQDIENYLNWYQQKPGKAPKLLIYYTSRLQSGVPSRFSGSGSGTDFTLTISSLQPEDFATYFCQQGNTQPPTFGQGTKLEIKRTVAAPDIQMTQSPSSLSASVGDRVTITCTSSQNIVHSNGNTYLEWYQQKPGKAPKLLIYKVSNRFSGVPSRFSGSGSGTDFTLTISSLQPEDFATYYCFQVSHVPYTFGQGTKVEIKR
B7: DVD3237 (bispecific antibody, IgG1)
VH: EVQLVQSGAEVKKPGASVKVSCKASGYTFNNYGIIWVRQAPGQGLEWMGWINTYTGKPTYAQKFQGRVTMTTDTSTSTAYMELSSLRSEDTAVYYCARKLFNTVAVTDNAMDYWGQGTTVTVSSASTKGPSVFPLAPEVQLVESGGGLVQPGGSLRLSCAASGFSFSKYWLGWVRQAPGKGLEWVSDIYPGYDYTHYNEKFKDRFTISADTSKNTAYLQMNSLRAEDTAVYYCARSDGSSTYWGQGTLVTVSS
VL: B6 VL
B8: DVD3236 (bispecific antibody, IgG1)
VH: B6 VH
VL: DIQMTQSPSSLSASVGDRVTITCRASQDIENYLNWYQQKPGKAPKLLIYYTSRLQSGVPSRFSGSGSGTDFTLTISSLQPEDFATYFCQQGNTQPPTFGQGTKLEIKRTVAAPSVFIFPPDIQMTQSPSSLSASVGDRVTITCTSSQNIVHSNGNTYLEWYQQKPGKAPKLLIYKVSNRFSGVPSRFSGSGSGTDFTLTISSLQPEDFATYYCFQVSHVPYTFGQGTKVEIKR
B9: DVD3233 (bispecific antibody, IgG1)
VH: EVQLVQSGAEVKKPGASVKVSCKASGYTFNNYGIIWVRQAPGQGLEWMGWINTYTGKPTYAQKFQGRVTMTTDTSTSTAYMELSSLRSEDTAVYYCARKLFNTVAVTDNAMDYWGQGTTVTVSSGGGGSGGGGSEVQLVESGGGLVQPGGSLRLSCAASGFSFSKYWLGWVRQAPGKGLEWVSDIYPGYDYTHYNEKFKDRFTISADTSKNTAYLQMNSLRAEDTAVYYCARSDGSSTYWGQGTLVTVSS
VL: DIQMTQSPSSLSASVGDRVTITCRASQDIENYLNWYQQKPGKAPKLLIYYTSRLQSGVPSRFSGSGSGTDFTLTISSLQPEDFATYFCQQGNTQPPTFGQGTKLEIKRGGSGGGGSGDIQMTQSPSSLSASVGDRVTITCTSSQNIVHSNGNTYLEWYQQKPGKAPKLLIYKVSNRFSGVPSRFSGSGSGTDFTLTISSLQPEDFATYYCFQVSHVPYTFGQGTKVEIKR

Biological target: Recombinant Human TNF-α/TNFSF1A (human, UniProt P01375 77-233)
Experiment: cell-based or functional assay

Recombinant Human TNF-α/TNFSF1A, sequence (P01375 77-233 limits assumed): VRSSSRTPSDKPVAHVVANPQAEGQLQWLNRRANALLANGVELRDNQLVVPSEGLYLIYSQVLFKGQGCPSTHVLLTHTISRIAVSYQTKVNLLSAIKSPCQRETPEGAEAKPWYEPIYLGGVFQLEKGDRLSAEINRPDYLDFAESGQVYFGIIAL

| Binder | C-Terminal VD huTNFα Neutralization Assay IC50 [nM] | N-Terminal VD huTNFα Neutralization Assay IC50 [pM] |
| --- | --- | --- |
| B1 | 0.168 |  |
| B2 | 0.112 |  |
| B3 | 0.254 |  |
| B4 | 0.13 |  |
| B5 | 1.62 |  |
| B6 |  | 9 |
| B7 |  | 10 |
| B8 |  | 6 |
| B9 |  | 5 |
